These substances were tested on peptide library, one residue held at a place counted from the S/T acceptor (assay: relative phosphorylation of the sub-library (ratio to the mean residue at this position); human; higher = residue favoured). Settings: L fixed; at +3.
Summary of the method: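 Relative sub-library phosphorylation is the ratio of each sub-library's signal to the mean residue at that position. The signal came from phosphorimaging of spots on streptavidin membranes, quantified by densitometry, after purified recombinant kinases reacted with biotinylated degenerate peptide sub-libraries in 384-well plates. Reactions held 50 μM peptide and 50 μM ATP spiked with γ-32P-ATP for 90 min under kinase-specific conditions.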

Sequence of PRPF4B, construct: aa519-end (Q13523 519-1007, looked up): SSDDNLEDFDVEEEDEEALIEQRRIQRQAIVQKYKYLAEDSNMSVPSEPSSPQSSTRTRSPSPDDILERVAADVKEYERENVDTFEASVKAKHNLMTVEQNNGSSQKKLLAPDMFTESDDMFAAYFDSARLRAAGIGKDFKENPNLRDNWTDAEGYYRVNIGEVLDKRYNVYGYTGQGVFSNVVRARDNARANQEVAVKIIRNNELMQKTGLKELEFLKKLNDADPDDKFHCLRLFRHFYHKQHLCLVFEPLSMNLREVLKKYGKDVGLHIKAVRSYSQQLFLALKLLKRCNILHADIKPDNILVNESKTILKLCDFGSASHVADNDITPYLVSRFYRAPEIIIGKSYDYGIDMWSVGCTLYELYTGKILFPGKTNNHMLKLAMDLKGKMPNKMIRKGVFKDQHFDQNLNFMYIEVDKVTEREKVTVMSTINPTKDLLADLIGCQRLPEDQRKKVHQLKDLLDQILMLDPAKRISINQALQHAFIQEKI
Sequence of PAK3, construct: Full length (O75914 whole entry, looked up): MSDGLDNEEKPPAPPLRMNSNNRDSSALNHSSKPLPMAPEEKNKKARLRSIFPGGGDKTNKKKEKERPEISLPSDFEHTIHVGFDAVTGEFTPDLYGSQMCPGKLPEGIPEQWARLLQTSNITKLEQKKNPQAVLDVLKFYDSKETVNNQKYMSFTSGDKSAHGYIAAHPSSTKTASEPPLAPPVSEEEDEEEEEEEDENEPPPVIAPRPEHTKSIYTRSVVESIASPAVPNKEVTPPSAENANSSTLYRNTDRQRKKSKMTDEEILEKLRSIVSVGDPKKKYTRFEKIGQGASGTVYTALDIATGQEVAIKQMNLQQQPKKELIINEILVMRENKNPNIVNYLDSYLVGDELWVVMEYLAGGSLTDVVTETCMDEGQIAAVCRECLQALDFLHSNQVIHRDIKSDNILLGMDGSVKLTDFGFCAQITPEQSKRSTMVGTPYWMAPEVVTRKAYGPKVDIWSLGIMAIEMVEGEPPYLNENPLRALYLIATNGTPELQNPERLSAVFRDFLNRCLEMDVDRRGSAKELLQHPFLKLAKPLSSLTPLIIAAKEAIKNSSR
Sequence of CLK3, construct: Full length (P49761 whole entry, looked up): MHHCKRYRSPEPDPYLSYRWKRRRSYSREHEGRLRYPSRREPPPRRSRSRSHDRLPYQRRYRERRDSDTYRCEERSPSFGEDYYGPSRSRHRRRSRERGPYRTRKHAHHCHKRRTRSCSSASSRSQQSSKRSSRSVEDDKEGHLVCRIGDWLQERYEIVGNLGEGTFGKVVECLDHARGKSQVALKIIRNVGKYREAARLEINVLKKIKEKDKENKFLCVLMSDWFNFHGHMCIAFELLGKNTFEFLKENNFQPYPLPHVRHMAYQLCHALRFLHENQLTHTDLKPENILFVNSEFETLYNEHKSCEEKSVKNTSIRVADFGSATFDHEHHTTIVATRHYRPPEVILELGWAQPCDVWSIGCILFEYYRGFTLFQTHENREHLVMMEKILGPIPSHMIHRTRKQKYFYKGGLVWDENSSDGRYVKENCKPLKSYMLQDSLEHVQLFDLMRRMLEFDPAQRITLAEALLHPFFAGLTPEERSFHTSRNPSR
Sequence of MELK, construct: aa1-340 (Q14680 1-340, looked up): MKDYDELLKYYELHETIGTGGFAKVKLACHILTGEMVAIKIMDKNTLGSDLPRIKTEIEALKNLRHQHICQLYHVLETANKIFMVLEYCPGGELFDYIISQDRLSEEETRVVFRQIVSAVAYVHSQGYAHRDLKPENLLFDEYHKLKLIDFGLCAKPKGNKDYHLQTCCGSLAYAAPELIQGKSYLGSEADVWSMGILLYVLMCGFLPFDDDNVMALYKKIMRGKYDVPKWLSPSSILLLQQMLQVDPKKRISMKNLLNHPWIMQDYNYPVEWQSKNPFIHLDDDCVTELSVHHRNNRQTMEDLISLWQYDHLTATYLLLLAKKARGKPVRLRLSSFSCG
Sequence of TTK, construct: Full length (P33981 whole entry, looked up): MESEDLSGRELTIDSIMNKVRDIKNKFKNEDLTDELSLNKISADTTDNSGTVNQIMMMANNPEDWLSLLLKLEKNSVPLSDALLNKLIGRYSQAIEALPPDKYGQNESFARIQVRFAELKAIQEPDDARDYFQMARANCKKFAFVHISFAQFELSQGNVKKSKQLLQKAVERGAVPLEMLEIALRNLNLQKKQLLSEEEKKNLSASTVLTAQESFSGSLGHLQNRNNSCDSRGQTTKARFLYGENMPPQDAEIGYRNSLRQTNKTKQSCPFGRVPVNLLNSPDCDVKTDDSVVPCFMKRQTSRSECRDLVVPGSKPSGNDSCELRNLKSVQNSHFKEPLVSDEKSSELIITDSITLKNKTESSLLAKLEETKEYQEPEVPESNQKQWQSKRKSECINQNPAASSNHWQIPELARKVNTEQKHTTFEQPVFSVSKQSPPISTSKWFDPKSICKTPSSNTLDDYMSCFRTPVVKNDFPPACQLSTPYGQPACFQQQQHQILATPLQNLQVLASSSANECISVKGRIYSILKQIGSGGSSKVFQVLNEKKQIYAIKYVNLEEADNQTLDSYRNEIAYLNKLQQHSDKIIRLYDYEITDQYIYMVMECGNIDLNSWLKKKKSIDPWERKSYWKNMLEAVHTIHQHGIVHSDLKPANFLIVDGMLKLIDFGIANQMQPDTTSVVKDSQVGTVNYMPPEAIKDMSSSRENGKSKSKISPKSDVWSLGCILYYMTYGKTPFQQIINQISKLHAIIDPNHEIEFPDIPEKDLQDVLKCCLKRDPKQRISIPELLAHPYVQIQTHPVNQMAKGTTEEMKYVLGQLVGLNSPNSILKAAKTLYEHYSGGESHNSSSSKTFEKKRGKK
Sequence of GRK5, construct: Full length (P34947 whole entry, looked up): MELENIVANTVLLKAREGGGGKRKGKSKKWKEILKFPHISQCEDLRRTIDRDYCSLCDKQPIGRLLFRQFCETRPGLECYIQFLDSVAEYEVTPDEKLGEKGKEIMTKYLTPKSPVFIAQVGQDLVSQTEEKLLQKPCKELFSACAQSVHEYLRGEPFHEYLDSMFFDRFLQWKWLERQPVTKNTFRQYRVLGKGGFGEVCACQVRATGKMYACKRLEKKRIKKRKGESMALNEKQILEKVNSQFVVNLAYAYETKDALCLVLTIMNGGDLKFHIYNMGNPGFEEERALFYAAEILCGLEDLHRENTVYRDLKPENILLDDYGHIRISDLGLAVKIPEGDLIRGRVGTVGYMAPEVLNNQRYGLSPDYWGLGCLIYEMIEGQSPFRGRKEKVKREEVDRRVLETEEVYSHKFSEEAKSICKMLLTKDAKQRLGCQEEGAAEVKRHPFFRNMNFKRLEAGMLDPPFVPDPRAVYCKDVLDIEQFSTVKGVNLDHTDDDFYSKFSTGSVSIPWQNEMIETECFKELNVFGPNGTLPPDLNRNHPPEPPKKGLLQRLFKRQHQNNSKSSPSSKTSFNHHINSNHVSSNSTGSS
Sequence of RPS6KA6, construct: Full length (Q9UK32 whole entry, looked up): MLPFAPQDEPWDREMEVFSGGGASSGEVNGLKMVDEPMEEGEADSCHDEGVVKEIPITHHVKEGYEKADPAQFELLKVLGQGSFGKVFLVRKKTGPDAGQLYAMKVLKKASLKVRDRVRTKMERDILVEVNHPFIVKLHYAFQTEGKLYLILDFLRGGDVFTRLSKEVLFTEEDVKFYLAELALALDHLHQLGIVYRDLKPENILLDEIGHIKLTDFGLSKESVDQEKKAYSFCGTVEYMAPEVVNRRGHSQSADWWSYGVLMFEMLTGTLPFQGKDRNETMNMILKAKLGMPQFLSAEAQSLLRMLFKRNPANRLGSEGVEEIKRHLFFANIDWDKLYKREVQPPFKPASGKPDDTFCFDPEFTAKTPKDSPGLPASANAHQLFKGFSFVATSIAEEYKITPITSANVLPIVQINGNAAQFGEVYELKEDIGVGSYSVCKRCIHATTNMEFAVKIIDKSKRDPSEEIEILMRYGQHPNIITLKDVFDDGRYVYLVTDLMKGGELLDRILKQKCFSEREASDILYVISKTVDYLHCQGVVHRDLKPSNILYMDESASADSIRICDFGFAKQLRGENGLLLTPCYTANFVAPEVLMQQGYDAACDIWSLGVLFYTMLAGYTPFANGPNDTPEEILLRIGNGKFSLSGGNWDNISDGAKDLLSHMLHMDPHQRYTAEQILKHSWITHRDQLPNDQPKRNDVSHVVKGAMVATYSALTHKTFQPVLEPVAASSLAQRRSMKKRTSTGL
Sequence of MASTL, construct: Full length (Q96GX5 whole entry, looked up): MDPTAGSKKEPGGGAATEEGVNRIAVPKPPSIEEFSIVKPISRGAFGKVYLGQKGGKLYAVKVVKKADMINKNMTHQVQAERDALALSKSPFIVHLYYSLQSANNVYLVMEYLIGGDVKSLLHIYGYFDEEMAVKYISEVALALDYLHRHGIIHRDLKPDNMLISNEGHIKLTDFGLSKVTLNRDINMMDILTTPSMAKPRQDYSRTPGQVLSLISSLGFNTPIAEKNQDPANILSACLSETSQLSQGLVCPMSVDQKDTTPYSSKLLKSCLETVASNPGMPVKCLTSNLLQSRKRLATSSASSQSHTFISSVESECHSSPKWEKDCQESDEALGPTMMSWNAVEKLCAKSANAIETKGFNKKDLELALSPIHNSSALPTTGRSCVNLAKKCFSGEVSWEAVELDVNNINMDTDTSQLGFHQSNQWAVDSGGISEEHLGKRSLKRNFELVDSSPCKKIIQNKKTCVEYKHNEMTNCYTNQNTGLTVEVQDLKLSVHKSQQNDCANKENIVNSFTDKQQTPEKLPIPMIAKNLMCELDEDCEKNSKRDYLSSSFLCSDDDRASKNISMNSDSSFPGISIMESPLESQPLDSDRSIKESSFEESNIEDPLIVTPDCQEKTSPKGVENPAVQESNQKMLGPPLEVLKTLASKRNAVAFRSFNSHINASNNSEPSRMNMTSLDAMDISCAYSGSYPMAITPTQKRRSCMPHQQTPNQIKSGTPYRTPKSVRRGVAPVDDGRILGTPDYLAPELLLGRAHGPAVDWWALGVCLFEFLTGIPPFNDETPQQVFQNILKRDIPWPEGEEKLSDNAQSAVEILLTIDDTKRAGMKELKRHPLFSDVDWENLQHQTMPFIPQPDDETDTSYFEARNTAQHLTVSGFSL

| Substance | relative phosphorylation |
| --- | --- |
| TTK, construct: Full length (from UniProt P33981) | 2.26 |
| PRPF4B, construct: aa519-end (from UniProt Q13523) | 0.91 |

Same assay, conditions: L fixed; at +4

| Substance | relative phosphorylation |
| --- | --- |
| PAK3, construct: Full length (from UniProt O75914) | 0.905 |
| MASTL, construct: Full length (from UniProt Q96GX5) | 0.941 |
| MELK, construct: aa1-340 (from UniProt Q14680) | 1.84 |
| CLK3, construct: Full length (from UniProt P49761) | 0.748 |
| RPS6KA6, construct: Full length (from UniProt Q9UK32) | 0.648 |
| GRK5, construct: Full length (from UniProt P34947) | 0.662 |
| TTK, construct: Full length (from UniProt P33981) | 0.738 |
| PRPF4B, construct: aa519-end (from UniProt Q13523) | 0.9 |

Same assay, conditions: L fixed; at -1

| Substance | relative phosphorylation |
| --- | --- |
| PAK3, construct: Full length (from UniProt O75914) | 1.11 |
| MASTL, construct: Full length (from UniProt Q96GX5) | 1.06 |
| MELK, construct: aa1-340 (from UniProt Q14680) | 1.07 |
| CLK3, construct: Full length (from UniProt P49761) | 0.376 |
| RPS6KA6, construct: Full length (from UniProt Q9UK32) | 0.657 |
| GRK5, construct: Full length (from UniProt P34947) | 0.874 |
| TTK, construct: Full length (from UniProt P33981) | 0.849 |
| PRPF4B, construct: aa519-end (from UniProt Q13523) | 1.03 |

Same assay, conditions: L fixed; at -2

| Substance | relative phosphorylation |
| --- | --- |
| PAK3, construct: Full length (from UniProt O75914) | 0.439 |
| MASTL, construct: Full length (from UniProt Q96GX5) | 0.579 |
| MELK, construct: aa1-340 (from UniProt Q14680) | 0.681 |
| CLK3, construct: Full length (from UniProt P49761) | 0.307 |
| RPS6KA6, construct: Full length (from UniProt Q9UK32) | 1.01 |
| GRK5, construct: Full length (from UniProt P34947) | 0.765 |
| TTK, construct: Full length (from UniProt P33981) | 0.336 |
| PRPF4B, construct: aa519-end (from UniProt Q13523) | 0.866 |

Same assay, conditions: L fixed; at -3

| Substance | relative phosphorylation |
| --- | --- |
| PAK3, construct: Full length (from UniProt O75914) | 0.558 |
| MASTL, construct: Full length (from UniProt Q96GX5) | 0.715 |
| MELK, construct: aa1-340 (from UniProt Q14680) | 0.454 |
| CLK3, construct: Full length (from UniProt P49761) | 0.31 |
| RPS6KA6, construct: Full length (from UniProt Q9UK32) | 0.245 |
| GRK5, construct: Full length (from UniProt P34947) | 0.707 |
| TTK, construct: Full length (from UniProt P33981) | 0.537 |
| PRPF4B, construct: aa519-end (from UniProt Q13523) | 0.41 |

Same assay, conditions: L fixed; at -4

| Substance | relative phosphorylation |
| --- | --- |
| PAK3, construct: Full length (from UniProt O75914) | 0.689 |
| MASTL, construct: Full length (from UniProt Q96GX5) | 0.656 |
| MELK, construct: aa1-340 (from UniProt Q14680) | 0.761 |
| CLK3, construct: Full length (from UniProt P49761) | 0.492 |
| RPS6KA6, construct: Full length (from UniProt Q9UK32) | 0.563 |
| GRK5, construct: Full length (from UniProt P34947) | 0.891 |
| TTK, construct: Full length (from UniProt P33981) | 0.694 |
| PRPF4B, construct: aa519-end (from UniProt Q13523) | 0.866 |

Same assay, conditions: L fixed; at -5

| Substance | relative phosphorylation |
| --- | --- |
| PAK3, construct: Full length (from UniProt O75914) | 0.636 |
| MASTL, construct: Full length (from UniProt Q96GX5) | 0.941 |
| MELK, construct: aa1-340 (from UniProt Q14680) | 1.76 |
| CLK3, construct: Full length (from UniProt P49761) | 0.599 |
| RPS6KA6, construct: Full length (from UniProt Q9UK32) | 0.539 |
| GRK5, construct: Full length (from UniProt P34947) | 0.82 |
| TTK, construct: Full length (from UniProt P33981) | 0.757 |
| PRPF4B, construct: aa519-end (from UniProt Q13523) | 0.83 |

Same assay, conditions: M fixed; at +1

| Substance | relative phosphorylation |
| --- | --- |
| PAK3, construct: Full length (from UniProt O75914) | 1.54 |
| MASTL, construct: Full length (from UniProt Q96GX5) | 1.71 |
| MELK, construct: aa1-340 (from UniProt Q14680) | 1.14 |
| CLK3, construct: Full length (from UniProt P49761) | 0.659 |
| RPS6KA6, construct: Full length (from UniProt Q9UK32) | 1.08 |
| GRK5, construct: Full length (from UniProt P34947) | 1.04 |
| TTK, construct: Full length (from UniProt P33981) | 1.49 |
| PRPF4B, construct: aa519-end (from UniProt Q13523) | 0.689 |

Same assay, conditions: M fixed; at +2

| Substance | relative phosphorylation |
| --- | --- |
| PAK3, construct: Full length (from UniProt O75914) | 1.04 |
| MASTL, construct: Full length (from UniProt Q96GX5) | 1.15 |
| MELK, construct: aa1-340 (from UniProt Q14680) | 1.68 |
| CLK3, construct: Full length (from UniProt P49761) | 0.574 |
| RPS6KA6, construct: Full length (from UniProt Q9UK32) | 0.594 |
| GRK5, construct: Full length (from UniProt P34947) | 0.841 |
| TTK, construct: Full length (from UniProt P33981) | 1.02 |
| PRPF4B, construct: aa519-end (from UniProt Q13523) | 1.05 |

Same assay, conditions: M fixed; at +3

| Substance | relative phosphorylation |
| --- | --- |
| PAK3, construct: Full length (from UniProt O75914) | 1.02 |
| MASTL, construct: Full length (from UniProt Q96GX5) | 1.15 |
| MELK, construct: aa1-340 (from UniProt Q14680) | 0.986 |
| CLK3, construct: Full length (from UniProt P49761) | 0.424 |
| RPS6KA6, construct: Full length (from UniProt Q9UK32) | 0.717 |
| GRK5, construct: Full length (from UniProt P34947) | 0.724 |
| TTK, construct: Full length (from UniProt P33981) | 1.29 |
| PRPF4B, construct: aa519-end (from UniProt Q13523) | 0.747 |

Same assay, conditions: M fixed; at +4

| Substance | relative phosphorylation |
| --- | --- |
| PAK3, construct: Full length (from UniProt O75914) | 0.933 |
| MASTL, construct: Full length (from UniProt Q96GX5) | 1.02 |
| MELK, construct: aa1-340 (from UniProt Q14680) | 1.1 |
| CLK3, construct: Full length (from UniProt P49761) | 0.724 |
| RPS6KA6, construct: Full length (from UniProt Q9UK32) | 0.82 |
| GRK5, construct: Full length (from UniProt P34947) | 0.723 |
| TTK, construct: Full length (from UniProt P33981) | 0.868 |
| PRPF4B, construct: aa519-end (from UniProt Q13523) | 1.04 |

Same assay, conditions: M fixed; at -1

| Substance | relative phosphorylation |
| --- | --- |
| PAK3, construct: Full length (from UniProt O75914) | 1.12 |
| MASTL, construct: Full length (from UniProt Q96GX5) | 1.25 |
| MELK, construct: aa1-340 (from UniProt Q14680) | 1.1 |
| CLK3, construct: Full length (from UniProt P49761) | 0.405 |

Source: the supplement of paper PMC9876800
